Assay results as given in patent EP2085478A1.

Molecular target: XKVLQT1 (Xenopus KVLQT1 homologue, 1.6 kb partial clone) (Xenopus) (UniProt P70057)
Assay: cell-based or functional assay

Chain of UniProt P70057 (P70057 other isoform, or with tags, fused parts or gaps): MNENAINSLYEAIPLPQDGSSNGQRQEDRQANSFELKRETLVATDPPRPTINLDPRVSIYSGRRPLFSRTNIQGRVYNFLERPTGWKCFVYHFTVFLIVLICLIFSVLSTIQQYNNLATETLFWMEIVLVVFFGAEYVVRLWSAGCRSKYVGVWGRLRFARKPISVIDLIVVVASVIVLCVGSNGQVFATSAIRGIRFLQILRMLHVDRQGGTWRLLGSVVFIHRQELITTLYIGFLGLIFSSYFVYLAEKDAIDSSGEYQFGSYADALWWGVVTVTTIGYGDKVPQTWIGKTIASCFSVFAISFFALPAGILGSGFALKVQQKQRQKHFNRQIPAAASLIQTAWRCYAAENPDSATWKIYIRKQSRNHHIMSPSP

- IsK at +40 mV, oocytes injected with 60 pg hminK cRNA: 2.11 µA
- IsK at +40 mV, oocytes injected with 1 ng hminK cRNA: 2.2 µA
- V½ of the normalized isochronal activation curve, oocytes injected with hminK: 2.4 mV
Substance: human minK (from UniProt P15382 1-129)
